The record followed here is article doi:10.1101/2023.04.01.535177 (bioRxiv, 2023).

The stoichiometry N is the number of molecules, sites or subunits per partner or assembly.

What all share (experiment): SEC
(Size exclusion chromatography separates by hydrodynamic size, large species first.)

Series [1] addresses Parsonsia alboflavescens homospermidine synthase, single mutant V269I (IXXXD motif) (Parsonsia alboflavescens).
Series [2] addresses Parsonsia alboflavescens homospermidine synthase, single mutant D273N (VXXXN motif) (Parsonsia alboflavescens).
In series [3] the target is Parsonsia alboflavescens homospermidine synthase, double mutant V269I D273N (IXXXN motif) (Parsonsia alboflavescens).
Series [4] concerns the molecule itself.

Molecule “Parsonsia alboflavescens homospermidine synthase, single mutant V269I (IXXXD motif) (enzyme)” registered a stoichiometry N in series [1] of 4.

The molecule “Parsonsia alboflavescens homospermidine synthase, single mutant D273N (VXXXN motif) (enzyme)” displayed a stoichiometry N in series [2] of 4.

In the case of “Parsonsia alboflavescens homospermidine synthase, double mutant V269I D273N (IXXXN motif) (enzyme)”, the stoichiometry N in series [3] came out at 4.

B1: Parsonsia alboflavescens homospermidine synthase, wild type (VXXXD motif) (enzyme, UniProt A0A2P1M5T0 1-374, looked up)
chain: MGDDAIRQNFLDSARSNVFKALESLEGCKKIKGYDFNKGVNHRELLLSMVSTGFQASNLGDAIDVINQMRAWKLSDEPIPENCKEQEKDPKFRDSVRCKVFLGFTSNLISSGVRETIRYLAQHRMIDVLVTTAGGIEEDFIKCLAPTFKGDFSLPGAALRSKGLNRIGNLLVPNDNYCKFEDWIMPIFDKMLEEQLEEKVLWTPSRVIARLGKEINDESSYLYWAYKNKIPVYCPAITDGSIGDMLYFHSFRNPASLIVDIVQDVRNMDDEIVLAGLRKTGIIILGGGLPKHHICNANMMRNGADFAVFINTAQEFDGSDSGARPDEAISWGKIRSTAKHVKVHCDATIAFPLLVAETFAKGKSTWTKYLGYIY
Take B1: the “stoichiometry N” value in series [4] stood at 4.
